From publication PMC6804851, “Mechanism of floral scent production in Osmanthus fragrans and the production and regulation of its key floral constituents, β-ionone and linalool”

What was measured:
OfERF61 [1] = molecular target: T1, OfERF61 (Osmanthus fragrans, UniProt A0A5P8PES4 1-303); test: EMSA; 0, 2, 4, 8 ug ERF61; complex increases with protein; LightShift Chemiluminescent EMSA Kit (Thermo Fisher), manufacturer's instructions; buffer, salt, pH and temperature not stated; conditions: protein: recombinant; tags: pET-30a vector tags (not given); label: 3' biotin (sense strand); blunt
OfERF61 [2] = molecular target: T1, OfERF61; test: competition; labeled OC1 probe; signal reduced at 20-fold, not detected at 200-fold excess; LightShift Chemiluminescent EMSA Kit (Thermo Fisher), manufacturer's instructions; buffer, salt, pH and temperature not stated; conditions: protein: recombinant; tags: pET-30a vector tags (not given); label: none; blunt

T1 sequence (A0A5P8PES4 entry or part of it): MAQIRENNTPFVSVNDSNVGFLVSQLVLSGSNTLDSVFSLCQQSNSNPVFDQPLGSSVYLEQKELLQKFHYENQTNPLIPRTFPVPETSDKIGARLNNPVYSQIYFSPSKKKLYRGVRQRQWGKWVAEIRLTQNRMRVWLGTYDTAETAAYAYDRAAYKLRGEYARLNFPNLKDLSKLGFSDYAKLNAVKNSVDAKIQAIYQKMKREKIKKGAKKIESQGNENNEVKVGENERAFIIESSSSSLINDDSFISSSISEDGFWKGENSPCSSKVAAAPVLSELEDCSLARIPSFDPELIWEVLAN

Binder | binding result (OfERF61 [1]) | binding result (OfERF61 [2])
OC1 probe (OfCCD4 promoter, CAACA element) (dsDNA) DNA 1: AAAGAAAAAAGGACAACAACAGTGGATAATTTGA DNA 2: TCAAATTATCCACTGTTGTTGTCCTTTTTTCTTT | binds | 
OC1 unlabeled competitor (dsDNA) DNA 1: AAAGAAAAAAGGACAACAACAGTGGATAATTTGA DNA 2: TCAAATTATCCACTGTTGTTGTCCTTTTTTCTTT |  | binds
